No end group written: not given here. fluorescein = fluorescein label attached to the Cys side chain
Legend:
TmrAB R132A^TmrA = molecular target: T1, TmrAB R132A^TmrA (Thermus thermophilus, UniProt Q72J05 1-600; Q72J04 1-578, R132A); assay: fluorescence polarisation; 1.7 uM TmrAB with 50 nM RRY(C^Fluorescein)KSTEL in SEC buffer (20 mM HEPES, 150 mM NaCl, pH 7, 0.05% ß-DDM), 15 minutes on ice, in the absence or presence of 5 mM ATP and 10 mM MgCl2; read at 25°C (the results say 4°C); signal normalized to WT without ATP; details: both partners purified
T1 construct: TmrA, Thermus thermophilus, the chain of TmrAB with the canonical Walker B motif; TmrB, Thermus thermophilus, the chain of TmrAB with the non-canonical Walker B motif
T1 sequence 1: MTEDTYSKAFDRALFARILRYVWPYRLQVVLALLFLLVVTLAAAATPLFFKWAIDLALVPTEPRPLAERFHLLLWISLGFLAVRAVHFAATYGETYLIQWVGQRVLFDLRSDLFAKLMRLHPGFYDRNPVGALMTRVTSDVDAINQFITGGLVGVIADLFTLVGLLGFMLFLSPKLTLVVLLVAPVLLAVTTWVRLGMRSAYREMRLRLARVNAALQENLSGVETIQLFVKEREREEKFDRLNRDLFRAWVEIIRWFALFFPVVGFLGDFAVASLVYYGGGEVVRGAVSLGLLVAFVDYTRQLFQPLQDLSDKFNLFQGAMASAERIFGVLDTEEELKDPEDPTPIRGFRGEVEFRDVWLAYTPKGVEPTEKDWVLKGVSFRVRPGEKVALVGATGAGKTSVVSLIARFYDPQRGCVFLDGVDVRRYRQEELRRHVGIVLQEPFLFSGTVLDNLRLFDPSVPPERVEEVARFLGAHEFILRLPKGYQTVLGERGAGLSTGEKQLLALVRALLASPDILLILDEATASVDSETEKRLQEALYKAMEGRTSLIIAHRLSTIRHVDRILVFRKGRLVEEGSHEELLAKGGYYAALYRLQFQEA
T1 sequence 2: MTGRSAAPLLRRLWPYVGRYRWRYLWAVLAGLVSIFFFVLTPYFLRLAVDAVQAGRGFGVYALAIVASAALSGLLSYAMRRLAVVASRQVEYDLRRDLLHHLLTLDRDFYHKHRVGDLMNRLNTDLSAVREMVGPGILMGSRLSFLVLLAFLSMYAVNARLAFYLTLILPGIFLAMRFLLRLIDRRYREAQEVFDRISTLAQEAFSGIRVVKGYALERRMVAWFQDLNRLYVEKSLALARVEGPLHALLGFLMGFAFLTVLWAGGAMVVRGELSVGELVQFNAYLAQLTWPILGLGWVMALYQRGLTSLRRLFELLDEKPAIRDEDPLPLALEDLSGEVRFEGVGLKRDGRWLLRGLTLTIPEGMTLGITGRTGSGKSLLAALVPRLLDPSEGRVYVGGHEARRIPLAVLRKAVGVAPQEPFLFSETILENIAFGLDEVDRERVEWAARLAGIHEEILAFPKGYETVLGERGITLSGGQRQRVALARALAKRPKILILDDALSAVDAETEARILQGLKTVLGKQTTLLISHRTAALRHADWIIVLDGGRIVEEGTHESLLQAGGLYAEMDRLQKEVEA

TmrAB G131A^TmrA = molecular target: T2, TmrAB G131A^TmrA (Thermus thermophilus, UniProt Q72J05 1-600; Q72J04 1-578, G131A); assay: as above; details: both partners purified
T2 construct: TmrA, Thermus thermophilus, the chain of TmrAB with the canonical Walker B motif; TmrB, Thermus thermophilus, the chain of TmrAB with the non-canonical Walker B motif; also called G131A^TmrA variant; source: cultured at room temperature for 16 hours after induction
T2 sequence 1: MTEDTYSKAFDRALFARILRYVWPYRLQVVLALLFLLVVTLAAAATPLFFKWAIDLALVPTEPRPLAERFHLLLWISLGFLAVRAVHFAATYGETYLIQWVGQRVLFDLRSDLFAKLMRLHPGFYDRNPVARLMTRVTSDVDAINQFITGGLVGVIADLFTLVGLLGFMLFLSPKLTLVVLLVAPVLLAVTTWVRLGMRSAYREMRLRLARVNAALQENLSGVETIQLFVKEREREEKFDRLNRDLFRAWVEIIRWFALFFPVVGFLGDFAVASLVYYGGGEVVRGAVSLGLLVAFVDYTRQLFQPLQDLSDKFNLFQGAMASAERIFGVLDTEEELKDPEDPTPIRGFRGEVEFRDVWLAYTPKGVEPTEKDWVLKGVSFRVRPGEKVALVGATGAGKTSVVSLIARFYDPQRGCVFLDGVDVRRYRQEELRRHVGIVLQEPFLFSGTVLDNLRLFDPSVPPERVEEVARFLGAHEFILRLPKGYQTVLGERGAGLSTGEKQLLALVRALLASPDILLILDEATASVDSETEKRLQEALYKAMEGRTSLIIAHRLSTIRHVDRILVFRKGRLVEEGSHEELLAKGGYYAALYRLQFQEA
T2 sequence 2: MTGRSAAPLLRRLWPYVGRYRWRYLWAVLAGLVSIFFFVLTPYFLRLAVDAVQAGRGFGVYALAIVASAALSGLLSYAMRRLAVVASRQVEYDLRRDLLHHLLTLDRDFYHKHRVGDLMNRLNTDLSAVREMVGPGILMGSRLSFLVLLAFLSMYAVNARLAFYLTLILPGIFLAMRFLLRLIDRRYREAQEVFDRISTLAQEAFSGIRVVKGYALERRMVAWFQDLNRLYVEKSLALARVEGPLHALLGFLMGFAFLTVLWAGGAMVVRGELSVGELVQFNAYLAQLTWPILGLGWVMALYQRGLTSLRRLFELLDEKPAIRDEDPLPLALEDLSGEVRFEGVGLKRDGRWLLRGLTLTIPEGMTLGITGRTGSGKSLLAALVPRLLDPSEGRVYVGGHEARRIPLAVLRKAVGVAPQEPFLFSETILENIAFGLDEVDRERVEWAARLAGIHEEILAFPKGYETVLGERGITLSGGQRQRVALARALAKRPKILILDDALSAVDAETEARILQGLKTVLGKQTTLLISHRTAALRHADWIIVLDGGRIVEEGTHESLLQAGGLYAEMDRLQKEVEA

B1: fluorescent transport substrate peptide RRY(C^Fluorescein)KSTEL (peptide)
peptide: RRYC(fluorescein)KSTEL
notes: fluorescein-labelled transport substrate peptide of TmrAB; also called fluorescently-labeled peptide substrate; peptide substrate; source: bought: Genscript
Which results are given for B1?
binding result (TmrAB R132A^TmrA): binds; binding result (TmrAB G131A^TmrA): binds
